Results on nine substances are retold here after publication PMC5358978, “Nuclear export receptor CRM1 recognizes diverse conformations in nuclear export signals” (eLife, 2017).

One test deals with ^HsCRM1 (Homo sapiens, UniProt O14980). Nature of the test: Differential bleaching, competition titration of MBP-NES to FITC-PKI^NES and CRM1 with excess RanGTP. In kind it is binding.
Another test has as its system HeLa cells. Description: In vivo NES activity assay, EYFP2-SV40^NLS-NES reporter, spinning disk confocal microscope. The note with it: EYFP2-SV40^NLS-FMRP-1b^NES expressed in HeLa cells; 60X. The test is classed as cell-based. The source says: Figure 2. Structures of NESs with non-helical sequence patterns. (A–E) FMRP^NES (light orange), SMAD4^NES (salmon), HDAC^NES (slate), Pax^NES (pale cyan) and FMRP-1b^NES (deep teal) bound to the ^ScCRM1 groove. […] Average displacements of each Φ Cα in the eight NESs (including mDia2^NES, CDC7^NES, X11L2^NES in Figure 1) from the equivalent Φ Cα of PKI^NES(Ф0L) are 1.3 ± 0.6 (Φ4), 0.8 ± 0.5 (Φ3), 0.7 ± 0.4 (Φ2), 0.9 ± 0.3 (Φ1) and 1.8 ± 0.9 (Φ0) Å. DOI: http://dx.doi.org/10.7554/eLife.23961.012 Figure 2—figure supplement 1. Electron densities of the NES peptides. […] DOI: http://dx.doi.org/10.7554/eLife.23961.013 [drawing 7] Figure 2—figure supplement 2. Engineering class 1b NESs. (A) Sequences of class 1b NESs generated from PKI^NES and FMRP^NES. […] The reactions were extensively washed and visualized with SDS/PAGE and Coomassie staining. (B) Leptomycin B (LMB) sensitive nuclear export activity of FMRP-1b^NES was verified by expressing EYFP2-SV40^NLS-FMRP-1b^NES in HeLa cells and imaged with spinning disk confocal microscope (60X). DOI: http://dx.doi.org/10.7554/eLife.23961.014 [drawing 8]

Another test concerns wild type ^HsCRM1. Nature of the test: Pull-down binding assay with immobilized GST-NESs. On the set-up: species or system human. Conditions: ~5 µg immobilized GST-NESs, 7.5 µM ^ScRanGTP, 2.5 µM CRM1, 200 µL.
A further test deals with CRM1. The note with it: ref Xu et al., 2012c, 2015; cited from earlier work. An excerpt: What then are CRM1 groove features that selectively recognize the key NES features? Arrangement of hydrophobic pockets in the groove likely selects NESs with suitably placed Φ residues. Groove shape, tapering and most constricted at ^ScCRM1 Lys579 (^HsCRM1 Lys568), likely selects for NES helices that transition to strands or NES helices that end (Figure 3C). Is groove-constricting ^HsCRM1 Lys568 perhaps key for differentiating active from false positive NES sequences? We tested mutants ^HsCRM1(K568A) and ^HsCRM1(K568M) for interactions with three previously identified false positive NESs that ...

The mark [1] stands for this setting: MBP-NES competes with FITC-PKI^NES for CRM1, excess RanGTP, triplicate, brackets = 68.3% confidence interval.

“MBP-Pax^NES: MBP fusion of the NES of Paxillin”: the Kd with ^HsCRM1 (setting [1]) was 0.67 µM. Turning to “MBP-X11L2^NES: MBP fusion of the NES from beta-amyloid binding protein X11L2”, binding with ^HsCRM1 (setting [1]) was put at a Kd of 1.5 µM.

As for “MBP-SMAD4^NES: MBP fusion of the NES of Mothers against decapentaplegic homolog 4 protein”, the Kd with ^HsCRM1 (setting [1]) was 4.6 µM. For the substance “GGS-YLKEVDQLRALERLQID [MBP-FMRP-1b^NES, Engineered class 1b NES, an alanine added to FMRP^NES; tested as MBP fusion and as EYFP2-SV40^NLS reporter]”, the affinity with ^HsCRM1 (setting [1]), expressed as Kd, was 3 µM. In addition, the “Leptomycin B (LMB) sensitive nuclear export activity” value in the test on HeLa cells is given as “verified”. The substance “MBP-FMRP^NES: MBP fusion of the class 2 NES of fragile X mental retardation protein” had a Kd in the test with ^HsCRM1 (setting [1]) of 2 µM.

With “MBP-HDAC5^NES: MBP fusion of the NES of Histone deacetylase 5”, the Kd in the test with ^HsCRM1 (setting [1]) was determined as 1.6 µM. Turning to YLKEVDQLRALER [MBP-FMRP-1b^NES mutant], the “CRM1 binding in words, differential bleaching competition” value at ^HsCRM1 (excess RanGTP) is on record as “does not bind CRM1”. Also, the Kd with ^HsCRM1 (triplicate competition titrations, brackets = 68.3% confidence level, U = undetermined, NB = not binding) was determined as 1700 µM. On to “173KTLSEVEESISTLISQPN^190 [COMMD1^pep, False positive NES peptide from COMM domain-containing protein 1, class 3 match; GST fusion in pull-down]”, for which the “Pull-down binding to wild type ^HsCRM1” value in the test on wild type ^HsCRM1 is recorded as “does not bind”. The “CRM1 binding of false positive NESs that match NES consensus” value in the test on CRM1 was “do not bind CRM1”.

In turn, “MBP-CDC7^NES: MBP fusion of the NES of cell division cycle 7-related protein kinase” gave a Kd in the test with ^HsCRM1 (setting [1]) of 20 µM.

As a reminder, the Kd is the concentration at which binding is half-saturated. A high value points to lower affinity.
